Measured values reported in the supplement of paper PMC5998384.

Assays:
[1] = system: HeLa Kyoto; assay: solubility in G1/S (NP-40 vs SDS abundance) (log2 ratio); higher = more soluble; conditions: cell cycle stage: G1/S
[2] = system: HeLa Kyoto; assay: thermal stability score vs G1/S (z-score of summed log2 fold changes over temperatures); higher = more thermally stable than in G1/S
[3] = system: HeLa Kyoto; assay: melting temperature (median over replicates), in situ; higher = more thermally stable
[4] = system: HeLa Kyoto; assay: solubility change mitosis vs G1/S (difference of NP-40 vs SDS log2 ratios) (log2 ratio difference); higher = more soluble in mitosis
[5] = cell cycle stage: early G1 (4.5 h after nocodazole release)
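Wherever melting temperature (median over replicates), in situ is given: HeLa Kyoto cells synchronized by double thymidine or nocodazole block, proteins quantified by TMT10plex mass spectrometry, three independent biological replicates.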
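Wherever solubility change mitosis vs G1/S (difference of NP-40 vs SDS log2 ratios) is given: synchronized HeLa Kyoto cells (double thymidine block for G1/S, nocodazole release for mitosis), protein amounts in NP-40 versus SDS lysates quantified by mass spectrometry, three biological replicates.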
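Wherever solubility in G1/S (NP-40 vs SDS abundance) is given: HeLa Kyoto cells arrested at G1/S by double thymidine block, proteins quantified by TMT10plex mass spectrometry in mild NP-40 versus SDS extracts, three biological replicates.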
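Wherever thermal stability score vs G1/S (z-score of summed log2 fold changes over temperatures) is given: synchronized HeLa Kyoto cells, proteins quantified by TMT10plex mass spectrometry, three biological replicates, mitosis taken 0.5 h after nocodazole release, G1/S directly after double thymidine block.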

Chain of CASKIN2 (chain, as listed by the source): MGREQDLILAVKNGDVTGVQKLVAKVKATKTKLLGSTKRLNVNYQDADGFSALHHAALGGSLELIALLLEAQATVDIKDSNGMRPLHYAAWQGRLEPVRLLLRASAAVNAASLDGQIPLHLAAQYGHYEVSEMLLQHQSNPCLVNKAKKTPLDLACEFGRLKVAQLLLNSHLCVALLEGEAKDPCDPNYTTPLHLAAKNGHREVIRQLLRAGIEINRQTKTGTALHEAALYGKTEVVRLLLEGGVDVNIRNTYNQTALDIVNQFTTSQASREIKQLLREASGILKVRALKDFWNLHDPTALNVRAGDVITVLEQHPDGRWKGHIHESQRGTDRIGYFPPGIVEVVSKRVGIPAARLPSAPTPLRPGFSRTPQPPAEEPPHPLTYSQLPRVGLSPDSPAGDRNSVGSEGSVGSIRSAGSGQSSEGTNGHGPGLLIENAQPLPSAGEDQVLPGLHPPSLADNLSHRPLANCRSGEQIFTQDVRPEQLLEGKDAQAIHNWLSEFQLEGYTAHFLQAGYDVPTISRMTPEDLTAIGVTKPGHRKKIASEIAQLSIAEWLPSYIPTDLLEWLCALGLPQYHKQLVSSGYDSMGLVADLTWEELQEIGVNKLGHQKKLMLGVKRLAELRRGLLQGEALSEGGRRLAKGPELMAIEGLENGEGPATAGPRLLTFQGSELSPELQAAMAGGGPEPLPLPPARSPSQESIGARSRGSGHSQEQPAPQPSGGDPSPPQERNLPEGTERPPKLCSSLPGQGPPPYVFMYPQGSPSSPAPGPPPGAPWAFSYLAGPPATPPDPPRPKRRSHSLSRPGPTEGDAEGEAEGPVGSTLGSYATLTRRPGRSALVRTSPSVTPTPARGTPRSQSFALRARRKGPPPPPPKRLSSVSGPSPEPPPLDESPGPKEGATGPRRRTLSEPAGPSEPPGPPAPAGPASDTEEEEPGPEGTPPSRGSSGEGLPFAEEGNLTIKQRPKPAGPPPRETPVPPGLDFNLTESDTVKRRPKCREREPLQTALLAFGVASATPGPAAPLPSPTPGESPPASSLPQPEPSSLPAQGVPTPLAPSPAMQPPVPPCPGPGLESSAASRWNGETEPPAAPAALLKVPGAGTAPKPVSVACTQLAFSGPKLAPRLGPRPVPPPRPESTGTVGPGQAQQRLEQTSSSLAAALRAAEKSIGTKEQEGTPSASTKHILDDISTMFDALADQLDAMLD

Substance	solubility in G1/S (log2) [1]	thermal stability score [2, 5]	thermal stability score ([2]; cell cycle stage: mitosis)	melting temperature ([3]; cell cycle stage: G1/S)	melting temperature ([3]; cell cycle stage: mitosis)	solubility change mitosis (log2) [4]
MFRYESLEDCPLDEDEDAFQGLGEEDEEIDQFNDDTFGSGAVDDDWQEAHERLAELEEKLPVAVNEQTGNGERDEMDLLGDHEENLAERLSKMVIENELEDPAIMRAVQTRPVLQPQPGSLNSSIWDGSEVLRRIRGPLLAQEMPTVSVLEYALPQRPPQGPEDDRDLSERALPRRSTSPIIGSPPVRAVPIGTPPKQMAVPSFTQQILCPKPVHVRPPMPPRYPAPYGERMSPNQLCSVPNSSLLGHPFPPSVPPVLSPLQRAQLLGGAQLQPGRMSPSQFARVPGFVGSPLAAMNPKLLQGRVGQMLPPAPGFRAFFSAPPSATPPPQQHPPGPGPHLQNLRSQAPMFRPDTTHLHPQHRRLLHQRQQQNRSQHRNLNGAGDRGSHRSSHQDHLRKDPYANLMLQREKDWVSKIQMMQLQSTDPYLDDFYYQNYFEKLEKLSAAEEIQGDGPKKERTKLITPQVAKLEHAYKPVQFEGSLGKLTVSSVNNPRKMIDAVVTSRSEDDETKEKQVRDKRRKTLVIIEKTYSLLLDVEDYERRYLLSLEEERPALMDDRKHKICSMYDNLRGKLPGQERPSDDHFVQIMCIRKGKRMVARILPFLSTEQAADILMTTARNLPFLIKKDAQDEVLPCLLSPFSLLLYHLPSVSITSLLRQLMNLPQSAATPALSNPHLTAVLQNKFGLSLLLILLSRGEDLQSSDPATESTQNNQWTEVMFMATRELLRIPQAALAKPISIPTNLVSLFSRYVDRQKLNLLETKLQLVQGIR [PATL1]	0.255	-0.863	0.327	49.2 °C	48.5 °C	-0.0674
MAPAGCCCCCCFWGGAVAAAGAARRVLLLLLLGVLSAGLRPGALATEHYSPLSLLKQELQHRQQQEAPAGGGGCSPQSGDWGDQYSAECGESSFLNFHDSDCEPKGSSPCDSLLSLNTEKILSQAKSIAEQKRFPFATDNDSTNEELAIAYVLIGSGLYDEAIRHFSTMLQEEPDLVSAIYGRGIAYGKKGLHDIKNAELALFELSRVITLEPDRPEVFEQRAEILSPLGRINEAVNDLTKAIQLQPSARLYRHRGTLYFISEDYATAHEDFQQSLELNKNQPIAMLYKGLTFFHRGLLKEAIESFKEALKQKVDFIDAYKSLGQAYRELGNFEAATESFQKALLLNQNHVQTLQLRGMMLYHHGSLQEALKNFKRCLQLEPYNEVCQYMKGLSHVAMGQFYEGIKAQTKVMLNDPLPGQKASPEYLKVKYLREYSRYLHAHLDTPLTEYNIDVDLPGSFKDHWAKNLPFLIEDYEEQPGLQPHIKDVLHQNFESYKPEVQELICVADRLGSLMQYETPGFLPNKRIHRAMGLAALEVMQAVQRTWTNSKVRMNGKTRLMQWRDMFDIAVKWRRIADPDQPVLWLDQMPARSLSRGFNNHINLIRGQVINMRYLEYFEKILHFIKDRILVYHGANNPKGLLEVREALEKVHKVEDLLPIMKQFNTKTKDGFTVNTKVPSLKDQGKEYDGFTITITGDKVGNILFSVETQTTEERTQLYHAEIDALYKDLTAKGKVLILSSEFGEADAVCNLILSLVYYFYNLMPLSRGSSVIAYSVIVGALMASGKEVAGKIPKGKLVDFEAMTAPGSEAFSKVAKSWMNLKSISPSYKTLPSVSETFPTLRSMIEVLNTDSSPRCLKKL [TTC13]	0.165	1.53	0.195	52.7 °C	53.3 °C	-0.163
MELSAVGERVFAAEALLKRRIRKGRMEYLVKWKGWSQKYSTWEPEENILDARLLAAFEEREREMELYGPKKRGPKPKTFLLKAQAKAKAKTYEFRSDSARGIRIPYPGRSPQDLASTSRAREGLRNMGLSPPASSTSTSSTCRAEAPRDRDRDRDRDRERDRERERERERERERERERERGTSRVDDKPSSPGDSSKKRGPKPRKELPDPSQRPLGEPSAGLGEYLKGRKLDDTPSGAGKFPAGHSVIQLARRQDSDLVQCGVTSPSSAEATGKLAVDTFPARVIKHRAAFLEAKGQGALDPNGTRVRHGSGPPSSGGGLYRDMGAQGGRPSLIARIPVARILGDPEEESWSPSLTNLEKVVVTDVTSNFLTVTIKESNTDQGFFKEKR [CBX8]	-0.615	2.83	5.27	46.1 °C	49.5 °C	0.612
PKN2	-0.0314	0.95	1.36	48.3 °C	49.3 °C	-0.163
MAGELADKKDRDASPSKEERKRSRTPDRERDRDRDRKSSPSKDRKRHRSRDRRRGGSRSRSRSRSKSAERERRHKERERDKERDRNKKDRDRDKDGHRRDKDRKRSSLSPGRGKDFKSRKDRDSKKDEEDEHGDKKPKAQPLSLEELLAKKKAEEEAEAKPKFLSKAEREAEALKRRQQEVEERQRMLEEERKKRKQFQDLGRKMLEDPQERERRERRERMERETNGNEDEEGRQKIREEKDKSKELHAIKERYLGGIKKRRRTRHLNDRKFVFEWDASEDTSIDYNPLYKERHQVQLLGRGFIAGIDLKQQKREQSRFYGDLMEKRRTLEEKEQEEARLRKLRKKEAKQRWDDRHWSQKKLDEMTDRDWRIFREDYSITTKGGKIPNPIRSWKDSSLPPHILEVIDKCGYKEPTPIQRQAIPIGLQNRDIIGVAETGSGKTAAFLIPLLVWITTLPKIDRIEESDQGPYAIILAPTRELAQQIEEETIKFGKPLGIRTVAVIGGISREDQGFRLRMGCEIVIATPGRLIDVLENRYLVLSRCTYVVLDEADRMIDMGFEPDVQKILEHMPVSNQKPDTDEAEDPEKMLANFESGKHKYRQTVMFTATMPPAVERLARSYLRRPAVVYIGSAGKPHERVEQKVFLMSESEKRKKLLAILEQGFDPPIIIFVNQKKGCDVLAKSLEKMGYNACTLHGGKGQEQREFALSNLKAGAKDILVATDVAGRGIDIQDVSMVVNYDMAKNIEDYIHRIGRTGRAGKSGVAITFLTKEDSAVFYELKQAILESPVSSCPPELANHPDAQHKPGTILTKKRREETIFA [DDX23]	-1.02	1.14	3.64	48.8 °C	50.4 °C	0.24
MPTQRDSSTMSHTVAGGGSGDHSHQVRVKAYYRGDIMITHFEPSISFEGLCNEVRDMCSFDNEQLFTMKWIDEEGDPCTVSSQLELEEAFRLYELNKDSELLIHVFPCVPERPGMPCPGEDKSIYRRGARRWRKLYCANGHTFQAKRFNRRAHCAICTDRIWGLGRQGYKCINCKLLVHKKCHKLVTIECGRHSLPQEPVMPMDQSSMHSDHAQTVIPYNPSSHESLDQVGEEKEAMNTRESGKASSSLGLQDFDLLRVIGRGSYAKVLLVRLKKTDRIYAMKVVKKELVNDDEDIDWVQTEKHVFEQASNHPFLVGLHSCFQTESRLFFVIEYVNGGDLMFHMQRQRKLPEEHARFYSAEISLALNYLHERGIIYRDLKLDNVLLDSEGHIKLTDYGMCKEGLRPGDTTSTFCGTPNYIAPEILRGEDYGFSVDWWALGVLMFEMMAGRSPFDIVGSSDNPDQNTEDYLFQVILEKQIRIPRSLSVKAASVLKSFLNKDPKERLGCHPQTGFADIQGHPFFRNVDWDMMEQKQVVPPFKPNISGEFGLDNFDSQFTNEPVQLTPDDDDIVRKIDQSEFEGFEYINPLLMSAEECV [PRKCI]	-0.127	0.877	0.84	50.7 °C	51 °C	-0.129
CAMSAP1	-0.149	-0.2	0.324	50.4 °C	50.2 °C	0.0139
MGDSDDEYDRRRRDKFRRERSDYDRSRERDERRRGDDWNDREWDRGRERRSRGEYRDYDRNRRERFSPPRHELSPPQKRMRRDWDEHSSDPYHSGYEMPYAGGGGGPTYGPPQPWGHPDVHIMQHHVLPIQARLGSIAEIDLGVPPPVMKTFKEFLLSLDDSVDETEAVKRYNDYKLDFRRQQMQDFFLAHKDEEWFRSKYHPDEVGKRRQEARGALQNRLRVFLSLMETGWFDNLLLDIDKADAIVKMLDAAVIKMEGGTENDLRILEQEEEEEQAGKPGEPSKKEEGRAGAGLGDGERKTNDKDEKKEDGKQAENDSSNDDKTKKSEGDGDKEEKKEDSEKEAKKSSKKRNRKHSGDDSFDEGSVSESESESESGQAEEEKEEAEEALKEKEKPKEEEWEKPKDAAGLECKPRPLHKTCSLFMRNIAPNISRAEIISLCKRYPGFMRVALSEPQPERRFFRRGWVTFDRSVNIKEICWNLQNIRLRECELSPGVNRDLTRRVRNINGITQHKQIVRNDIKLAAKLIHTLDDRTQLWASEPGTPPLPTSLPSQNPILKNITDYLIEEVSAEEEELLGSSGGAPPEEPPKEGNPAEINVERDEKLIKVLDKLLLYLRIVHSLDYYNTCEYPNEDEMPNRCGIIHVRGPMPPNRISHGEVLEWQKTFEEKLTPLLSVRESLSEEEAQKMGRKDPEQEVEKFVTSNTQELGKDKWLCPLSGKKFKGPEFVRKHIFNKHAEKIEEVKKEVAFFNNFLTDAKRPALPEIKPAQPPGPAQILPPGLTPGLPYPHQTPQGLMPYGQPRPPILGYGAGAVRPAVPTGGPPYPHAPYGAGRGNYDAFRGQGGYPGKPRNRMVRGDPRAIVEYRDLDAPDDVDFF [SRRT]	-0.305	2.79	6.86	48.2 °C	49.1 °C	0.214
MLLLTRSPTAWHRLSQLKPRVLPGTLGGQALHLRSWLLSRQGPAETGGQGQPQGPGLRTRLLITGLFGAGLGGAWLALRAEKERLQQQKRTEALRQAAVGQGDFHLLDHRGRARCKADFRGQWVLMYFGFTHCPDICPDELEKLVQVVRQLEAEPGLPPVQPVFITVDPERDDVEAMARYVQDFHPRLLGLTGSTKQVAQASHSYRVYYNAGPKDEDQDYIVDHSIAIYLLNPDGLFTDYYGRSRSAEQISDSVRRHMAAFRSVLS [SCO2]	0.334	1.37	1.52	50.5 °C	51.5 °C	-0.127
MAGAEGAAGRQSELEPVVSLVDVLEEDEELENEACAVLGGSDSEKCSYSQGSVKRQALYACSTCTPEGEEPAGICLACSYECHGSHKLFELYTKRNFRCDCGNSKFKNLECKLLPDKAKVNSGNKYNDNFFGLYCICKRPYPDPEDEIPDEMIQCVVCEDWFHGRHLGAIPPESGDFQEMVCQACMKRCSFLWAYAAQLAVTKISTEDDGLVRNIDGIGDQEVIKPENGEHQDSTLKEDVPEQGKDDVREVKVEQNSEPCAGSSSESDLQTVFKNESLNAESKSGCKLQELKAKQLIKKDTATYWPLNWRSKLCTCQDCMKMYGDLDVLFLTDEYDTVLAYENKGKIAQATDRSDPLMDTLSSMNRVQQVELICEYNDLKTELKDYLKRFADEGTVVKREDIQQFFEEFQSKKRRRVDGMQYYCS [UBR7]	0.163	-0.155	0.512	49.9 °C	50.7 °C	-0.0607
MSSRKSKSNSLIHTECLSQVQRILRERFCRQSPHSNLFGVQVQYKHLSELLKRTALHGESNSVLIIGPRGSGKTMLINHALKELMEIEEVSENVLQVHLNGLLQINDKIALKEITRQLNLENVVGDKVFGSFAENLSFLLEALKKGDRTSSCPVIFILDEFDLFAHHKNQTLLYNLFDISQSAQTPIAVIGLTCRLDILELLEKRVKSRFSHRQIHLMNSFGFPQYVKIFKEQLSLPAEFPDKVFAEKWNENVQYLSEDRSVQEVLQKHFNISKNLRSLHMLLMLALNRVTASHPFMTAVDLMEASQLCSMDSKANIVHGLSVLEICLIIAMKHLNDIYEEEPFNFQMVYNEFQKFVQRKAHSVYNFEKPVVMKAFEHLQQLELIKPMERTSGNSQREYQLMKLLLDNTQIMNALQKYPNCPTDVRQWATSSLSWL [ORC4]	0.194	1.97	2.38	48.8 °C	49.6 °C	-0.248
CASKIN2	0.412	0.8	1.68	49.4 °C	48.8 °C	-0.0911
